The chains are these.
T1: LIGHT (Homo sapiens (Human), UniProt O43557 83-240, limits assumed)
T1 chain: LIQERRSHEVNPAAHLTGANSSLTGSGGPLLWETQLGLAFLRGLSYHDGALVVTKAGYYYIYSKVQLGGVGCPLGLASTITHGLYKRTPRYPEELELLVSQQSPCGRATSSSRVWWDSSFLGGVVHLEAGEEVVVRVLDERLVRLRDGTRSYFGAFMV

T2: TACI (Homo sapiens (Human), UniProt O14836 1-154, limits assumed)
T2 sequence: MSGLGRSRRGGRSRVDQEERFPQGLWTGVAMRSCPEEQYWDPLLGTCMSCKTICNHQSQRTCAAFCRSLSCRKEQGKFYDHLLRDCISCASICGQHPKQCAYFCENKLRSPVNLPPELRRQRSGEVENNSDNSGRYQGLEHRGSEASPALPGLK

T3: BCMA (Homo sapiens (Human), UniProt Q02223 1-48, limits assumed)
T3 chain: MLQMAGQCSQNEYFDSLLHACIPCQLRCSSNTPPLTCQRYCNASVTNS

T4: biotinylated APRIL (Homo sapiens (Human), UniProt O75888 105-250, biotinylated using NHS-biotin at a molar ratio of 20:1 biotin:APRIL)
T4 construct: also called bio-APRIL
T4 sequence: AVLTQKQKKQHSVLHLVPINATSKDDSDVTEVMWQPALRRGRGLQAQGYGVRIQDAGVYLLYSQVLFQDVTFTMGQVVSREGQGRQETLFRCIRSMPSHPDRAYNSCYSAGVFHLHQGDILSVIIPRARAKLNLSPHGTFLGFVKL

T5: TACI fusion protein (Homo sapiens (Human), UniProt O14836 1-154)
T5 construct: also called immobilized receptor
T5 sequence: T2 sequence

T6: BCMA fusion protein (Homo sapiens (Human), UniProt Q02223 1-48)
T6 construct: also called immobilized receptor
T6 chain: T3 chain

B1: A019C11 (scFv)
scFv: EVQLVQSGAEVKKPGASVKVSCKTSGYTFTDNYMHWVRQAPGQGLEWMGWISPNSSTTLYAQKFRGRVTLTRDTSVSTAYMELSGLDSDDTALYFCARGGRLAGSTVFTPAFEYWGRGTMVTVSSGGGGSGGGGSGGGGSAQAVLTQPSSVSEAPRQRVTISCSGSSSNIGNNAVKWYQQLPGKAPKLLIYYDDLLPSGVSDRFSGSKSGTSASLAISGLQSEDEADYYCAAWDDSLNGYVFGTGTKVTVLG
B2: APRIL (Tumor Necrosis Factor Delta), human (ligand)
chain: T4 sequence
notes: Soluble purified APRIL and FLAG-tagged APRIL were used in the selections; also called TNF-delta; human APRIL
B3: A027H08 (scFv)
scFv: QVQLQQSGAEVKKPGSSVKVSCKASGGTFSSYAISWVRQTPGQGLEWMGGIIPIFGAANYAQKFQGRVTITADESTSTAHMELSSLRSEDTAVYYCARGISGGMDVWGKGTLVTVSSGGGSGGGGSGGGGSDIQMTQSPSTLSASIGDRVTITCRASEGIYHWLAWYQQKPGKAPKLLIYKASSLASGAPSRFSGSGSGTDFTLTISSLQPDDFATYYCQQYSNYPLTFGGGTKLEIKR
B4: A024G01 (scFv)
scFv: EVQLVQSGAEVKKPGSSVKVSCKASGGTLSSDSITWVRQAPGQGLEWVGGLIPALGTANYAQKFQGRVTMTADRSTGTAYMELRSLKFDDTAVYYCARVSRTSYYDVLTDNNRYSYYMDVWGKGTLVTVSSGGGGSGGGGSGGGGSAHVILTQPPSVSVSPTQTATITCSGDHLGRKSLSWYQQKPGQSPVLVIYEDFKRPSGIPERFSASNSGYTATLTISGTQAMDEADYYCQAWDNRAVVFGGGTKLTVLG

Experiment [1] has as its target T1, LIGHT. The experiment in a line: Specificity phage ELISA (scFv on phage, anti-M13-HRP, A450). As to the method: (§1) Flexible 96-well plates (Falcon) were coated overnight at 4° C. with each antigen (1 μg/ml). All antigens were coated in PBS. After coating, the solutions were removed from the wells, and the plates were blocked for 1 hour at room temperature in MPBS. The plates were washed 3 times with PBS and then 50 μl of pre-blocked phage was added to each well. The plates were incubated at room temperature for 1 hour and then washed with 3 changes of PBST followed by 3 changes of PBS.
(§2) To each well, 50 μl of an anti-M13-HRP conjugate (Pharmacia) at a 1 in 5000 dilution in MPBS was added and the plates incubated at room temperature for 1 hour. Each plate was washed three times with PBST followed by three times with PBS.
(§3) Fifty μl of TMB substrate was then added to each well, and incubated at room temperature for 30 minutes or until color development. The reaction was stopped by the addition of 25 μl of 0.5 M H₂SO₄. The signal generated was measured by reading the absorbance at 450 nm (A₄₅₀) using a microtitre plate reader (Bio-Rad 3550).
In general terms: ELISA stands for enzyme-linked immunosorbent assay.

The target of experiment [2] is T2, TACI. The description is as above. The protocol: as §1, §2, §3
In experiment [3] the target is T7, BLyS (Homo sapiens (Human), UniProt Q9Y275 134-285).
T7 construct: also called Neutrokine-alpha
T7 sequence (Q9Y275 134-285 limits assumed): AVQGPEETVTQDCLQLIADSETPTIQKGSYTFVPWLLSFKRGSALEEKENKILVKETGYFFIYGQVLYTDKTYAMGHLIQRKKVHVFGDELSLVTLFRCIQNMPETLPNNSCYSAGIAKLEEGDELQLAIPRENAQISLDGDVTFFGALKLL
The description is as above. The protocol: as §1, §2, §3

Experiment [4] concerns the target T8, BSA (UniProt P02769 25-607).
T8 construct: Unrelated control antigen coated at 1 µg/ml in the phage ELISAs
Described as above. The protocol:
as §1, §2, §3

In experiment [5] the target is T3, BCMA. The description is as above. The protocol:
as §1, §2, §3

For experiment [6], the target named is T9, TNF-α (Homo sapiens (Human), UniProt P01375 77-233).
T9 construct: also called TNF-alpha
T9 sequence (P01375 77-233 limits assumed): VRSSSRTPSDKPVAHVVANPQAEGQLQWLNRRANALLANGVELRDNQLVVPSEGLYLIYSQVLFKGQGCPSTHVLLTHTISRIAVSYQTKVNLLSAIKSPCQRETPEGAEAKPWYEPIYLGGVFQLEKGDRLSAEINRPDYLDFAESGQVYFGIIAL
The description is as above. The protocol:
as §1, §2, §3

Experiment [7] has as its target T4, biotinylated APRIL. In words: scFv inhibition of bio-APRIL (50 ng/ml) binding to coated TACI fusion protein, streptavidin-DELFIA. As to the method:
(§4) APRIL binds to BCMA with higher affinity than its binds to TACI so, inhibition of biotinylated APRIL (bio-APRIL) binding to BCMA can be used to screen selection outputs as periplasmic extracts for neutralizers and then assess potency of the positives as purified scFvs. To perform this assay, each well of a black 96 well flat-bottomed plate (Costar) was coated with 1.25 ng BCMA fusion protein overnight at 4° C. The wells were blocked with 3% milk in PBS for an hour at room temperature. ScFv were then added in the presence of 5 ng/ml biotinylated APRIL for 90 minutes at room temperature. Binding of biotinylated APRIL was detected via streptavidin Delfia (Wallac) added at a 1:1000 dilution in Delfia assay buffer (Wallac). After an hour at room temperature this was read on a Wallac 1420 workstation at 620 nm.
(§5) An assay similar to that described above can also be used to test if anti-APRIL antibodies of the invention are able to inhibit binding of bio-APRIL to TACI. In this case, the plate was coated with 2.5 ng TACI fusion protein per well and scFv were added in the presence of 50 ng/ml biotinylated APRIL instead of 5 ng/ml. Otherwise, the method was identical to that for the BCMA:bio-APRIL assay.

Experiment [8] addresses T4, biotinylated APRIL. In words: scFv inhibition of bio-APRIL (5 ng/ml) binding to coated BCMA fusion protein, streptavidin-DELFIA. The protocol:
as §4

For experiment [9], the target named is T4, biotinylated APRIL. The experiment in a line: receptor binding inhibition assay: scFv titrated with bio-APRIL (5 ng/ml); blocked binding of bio-APRIL to plate-coated BCMA fusion protein; streptavidin Delfia, fluorescence counts. The protocol:
as §4

The target in experiment [10] is T4, biotinylated APRIL. The experiment in a line: receptor binding inhibition assay: scFv titrated with bio-APRIL (50 ng/ml); blocked binding of bio-APRIL to plate-coated TACI fusion protein; streptavidin Delfia, fluorescence counts. As to the method: as §4, §5
The target in experiment [11] is T5, TACI fusion protein. In words: Unlabelled APRIL titrated against 50 ng/ml bio-APRIL for binding to coated TACI fusion protein, streptavidin-DELFIA; inhibition was only partial. As to the method: as §4, §5
The target of experiment [12] is T6, BCMA fusion protein. The experiment in a line: Unlabelled APRIL titrated against 5 ng/ml bio-APRIL for binding to coated BCMA fusion protein, streptavidin-DELFIA. The protocol: as §4
Experiment [13] deals with T5, TACI fusion protein. The experiment in a line: receptor binding inhibition assay: unlabelled APRIL titrated against bio-APRIL (50 ng/ml, the competitor) for binding to plate-coated TACI fusion protein; streptavidin Delfia, fluorescence counts. The protocol: as §4, §5
The target of experiment [14] is T6, BCMA fusion protein. In words: receptor binding inhibition assay: unlabelled APRIL titrated against bio-APRIL (5 ng/ml, the competitor) for binding to plate-coated BCMA fusion protein; streptavidin Delfia, fluorescence counts. As to the method:
as §4

In experiment [15] the target is B2. In words: Title of Table 1; scFv identified by phage display selection and phage ELISA (Example 1).
Experiment [16] deals with T4, biotinylated APRIL. In words: scFv inhibition of bio-APRIL (5 ng/ml) binding to coated BCMA fusion protein, streptavidin-DELFIA; partial inhibition; unit cell reads 'nM (3)'. The protocol: as §4
For experiment [17], the target named is T4, biotinylated APRIL. The experiment in a line: scFv inhibition of bio-APRIL (50 ng/ml) binding to coated TACI fusion protein, streptavidin-DELFIA; partial inhibition; unit cell reads 'nM (1)'. As to the method: as §4, §5

T8 sequence (P02769 25-607 limits assumed): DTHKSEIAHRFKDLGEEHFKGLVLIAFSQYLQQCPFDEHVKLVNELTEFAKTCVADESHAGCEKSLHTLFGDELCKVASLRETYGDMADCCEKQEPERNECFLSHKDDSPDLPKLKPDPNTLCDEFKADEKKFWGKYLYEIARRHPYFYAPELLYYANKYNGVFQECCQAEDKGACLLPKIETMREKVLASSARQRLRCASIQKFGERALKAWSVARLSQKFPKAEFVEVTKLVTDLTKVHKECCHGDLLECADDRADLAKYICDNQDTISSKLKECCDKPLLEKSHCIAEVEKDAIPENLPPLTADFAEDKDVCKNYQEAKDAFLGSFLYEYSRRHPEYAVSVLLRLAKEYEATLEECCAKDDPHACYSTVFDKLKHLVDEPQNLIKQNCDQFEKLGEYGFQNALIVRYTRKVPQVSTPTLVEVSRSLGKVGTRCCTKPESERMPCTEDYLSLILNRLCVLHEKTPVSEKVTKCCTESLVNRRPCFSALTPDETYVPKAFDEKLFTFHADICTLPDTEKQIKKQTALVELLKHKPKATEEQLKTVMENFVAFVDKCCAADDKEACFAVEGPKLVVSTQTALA

As to B1, the binding result in experiment [1], in [2], in experiment [3], in [4], in experiment [5] and in [6] was “no binding (tested: antigen coated at 1 µg/ml)” each time. The concentration for half-maximal inhibition (IC50) – broadly, the concentration that inhibits the measured activity by half – in experiment [7] is 10 nM; in experiment [8] it was 4.3 nM; in experiment [9] it was 10 nM; in [10] it was 7 nM.

For the molecule B2, the IC50 stood at 1.3 nM in experiment [11], 0.048 nM in experiment [12], 0.165 nM in [13] and 0.043 nM in experiment [14].

Consider B3, for which the binding result in experiment [15] is given as “binds”.

In the case of B4, the IC50 in experiment [16] turned out to be 19 nM; in [17], 4 nM.

For the origin of these results see US20030059862A1 (Human Genome Sciences, published 2003).
